{
  "source": "patent US20230176076",
  "tested_on": "T1, JUL1 (JULGI) (Arabidopsis thaliana)",
  "T1 sequence": "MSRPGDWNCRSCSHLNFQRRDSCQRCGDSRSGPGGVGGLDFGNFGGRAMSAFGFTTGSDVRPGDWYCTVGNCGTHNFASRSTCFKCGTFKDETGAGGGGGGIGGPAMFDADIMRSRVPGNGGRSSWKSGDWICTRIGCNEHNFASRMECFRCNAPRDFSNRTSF",
  "assay": "EMSA",
  "details": "method inferred from context",
  "data": [
    {"substance": "SMXL5 5'UTR G-quadruplex probe", "values": [
      {"measurement": "Kd", "setting": "with potassium", "result": 130, "unit": "nM"},
      {"measurement": "Kd", "setting": "without potassium", "result": 230, "unit": "nM"}
    ]}
  ]
}
